Publication doi:10.1101/2023.10.26.564194 (bioRxiv, 2023)

Legend:
[1] = target: T1, recombinant His-tagged NRF2, full length (UniProt Q16236 1-605); assay: MST
T1 sequence: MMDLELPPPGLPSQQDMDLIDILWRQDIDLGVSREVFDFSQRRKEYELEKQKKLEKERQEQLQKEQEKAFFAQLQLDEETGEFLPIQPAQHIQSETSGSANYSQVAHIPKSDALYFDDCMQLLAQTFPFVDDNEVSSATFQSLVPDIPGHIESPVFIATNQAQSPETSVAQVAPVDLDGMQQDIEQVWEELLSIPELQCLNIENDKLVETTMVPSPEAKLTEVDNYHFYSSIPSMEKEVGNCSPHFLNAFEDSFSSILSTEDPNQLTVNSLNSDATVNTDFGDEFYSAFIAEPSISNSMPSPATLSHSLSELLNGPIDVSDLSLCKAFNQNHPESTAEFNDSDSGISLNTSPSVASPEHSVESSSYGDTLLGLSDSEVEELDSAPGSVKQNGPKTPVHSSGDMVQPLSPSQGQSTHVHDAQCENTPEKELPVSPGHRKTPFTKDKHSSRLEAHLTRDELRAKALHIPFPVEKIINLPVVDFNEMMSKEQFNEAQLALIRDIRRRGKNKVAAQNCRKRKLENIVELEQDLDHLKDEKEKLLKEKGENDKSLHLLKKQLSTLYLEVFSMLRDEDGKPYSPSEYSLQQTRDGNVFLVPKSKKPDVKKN

[2] = target: T2, recombinant His-Tag NRF2 truncation mutant Δ205-400 amino acids (Neh6/7 domains deleted) (UniProt Q16236 1-605, Δ205-400); assay: pull-down
T2 sequence: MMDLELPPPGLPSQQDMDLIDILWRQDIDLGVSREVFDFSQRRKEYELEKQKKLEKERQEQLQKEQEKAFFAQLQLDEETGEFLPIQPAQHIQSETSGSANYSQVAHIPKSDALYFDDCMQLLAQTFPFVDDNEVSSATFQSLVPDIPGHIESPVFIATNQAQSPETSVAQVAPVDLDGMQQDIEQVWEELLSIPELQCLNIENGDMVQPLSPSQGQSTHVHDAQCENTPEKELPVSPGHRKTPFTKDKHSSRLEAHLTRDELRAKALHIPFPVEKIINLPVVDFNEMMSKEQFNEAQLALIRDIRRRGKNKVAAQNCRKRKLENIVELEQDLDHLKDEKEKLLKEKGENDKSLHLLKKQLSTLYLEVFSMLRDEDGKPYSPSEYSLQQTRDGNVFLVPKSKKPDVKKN

Kd [1]: 859 ± 70.1 nM
binding result [2]: binds
B1: recombinant αB-crystallin (natural protein)
chain: MDIAIHHPWIRRPFFPFHSPSRLFDQFFGEHLLESDLFPTSTSLSPFYLRPPSFLRAPSWFDTGLSEMRLEKDRFSVNLDVKHFSPEELKVKVLGDVIEVHGKHEERQDEHGFISREFHRKYRIPADVDPLTITSSLSSDGVLTVNGPRKQVSGPERTIPITREEKPAVTAAPKK
